T1: human C1s (human, UniProt P09871 16-688)
T1 construct: also called hC1s; serum-derived human C1s (CompTech)
T1 sequence: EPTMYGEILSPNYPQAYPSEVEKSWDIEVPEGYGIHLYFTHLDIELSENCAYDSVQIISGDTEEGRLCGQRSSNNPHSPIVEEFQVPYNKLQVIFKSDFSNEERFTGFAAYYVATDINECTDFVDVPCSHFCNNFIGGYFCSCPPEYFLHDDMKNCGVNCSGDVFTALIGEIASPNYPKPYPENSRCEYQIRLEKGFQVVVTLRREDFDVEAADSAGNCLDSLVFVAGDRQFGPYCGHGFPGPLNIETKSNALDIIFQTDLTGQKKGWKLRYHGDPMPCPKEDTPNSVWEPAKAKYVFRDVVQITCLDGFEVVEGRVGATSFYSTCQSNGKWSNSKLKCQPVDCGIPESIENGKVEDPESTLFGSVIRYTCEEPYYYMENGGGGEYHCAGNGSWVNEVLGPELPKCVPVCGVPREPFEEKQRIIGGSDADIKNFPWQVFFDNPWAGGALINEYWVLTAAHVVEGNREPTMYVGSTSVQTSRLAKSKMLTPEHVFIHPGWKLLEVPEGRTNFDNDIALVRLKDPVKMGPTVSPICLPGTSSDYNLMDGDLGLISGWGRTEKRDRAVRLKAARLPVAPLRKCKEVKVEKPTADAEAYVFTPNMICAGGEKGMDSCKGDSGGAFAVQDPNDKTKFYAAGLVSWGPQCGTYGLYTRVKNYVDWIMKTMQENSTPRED

T2: Serum-derived human C1s (human, UniProt P09871 16-688)
T2 construct: The analyte was C1s purified from serum; also called hC1s
T2 sequence: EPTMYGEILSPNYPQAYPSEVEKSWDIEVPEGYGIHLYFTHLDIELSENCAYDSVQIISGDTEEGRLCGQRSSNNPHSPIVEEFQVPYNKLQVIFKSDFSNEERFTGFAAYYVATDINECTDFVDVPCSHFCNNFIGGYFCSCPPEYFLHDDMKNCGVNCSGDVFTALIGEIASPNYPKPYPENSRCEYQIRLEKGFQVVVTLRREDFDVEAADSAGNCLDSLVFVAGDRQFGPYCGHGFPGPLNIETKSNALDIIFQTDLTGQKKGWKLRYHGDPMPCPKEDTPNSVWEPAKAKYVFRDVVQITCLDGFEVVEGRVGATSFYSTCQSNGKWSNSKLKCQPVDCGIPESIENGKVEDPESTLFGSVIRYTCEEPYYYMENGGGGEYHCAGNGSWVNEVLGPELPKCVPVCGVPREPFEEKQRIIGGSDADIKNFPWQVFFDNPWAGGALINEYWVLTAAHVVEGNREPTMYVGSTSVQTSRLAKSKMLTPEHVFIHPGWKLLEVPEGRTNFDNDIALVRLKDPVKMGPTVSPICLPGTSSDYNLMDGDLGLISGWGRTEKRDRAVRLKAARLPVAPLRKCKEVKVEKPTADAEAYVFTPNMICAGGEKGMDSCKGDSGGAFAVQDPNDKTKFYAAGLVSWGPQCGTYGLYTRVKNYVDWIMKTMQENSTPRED


What was measured:
[1] = biological target: T1, human C1s; assay: SPR, Ab captured; pH 5.8, 1.2 mM Ca
Procedure, shortened: (§1)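 Readout: Biacore KD. Antibodies on protein A/G (~200 RU), C1s at 50 nM, 37 °C, ACES-buffered saline with Tween at pH 7.4/1.2 mM Ca, pH 5.8/1.2 mM Ca or pH 5.8/3 µM Ca.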

[2] = biological target: T1, human C1s; assay: SPR; KD pH 5.8 1.2 mM Ca / KD pH 7.4 1.2 mM Ca
Procedure, shortened: as §1

[3] = biological target: T1, human C1s; assay: SPR, Ab captured; pH 5.8, 3 uM Ca
Procedure: All variants were transiently expressed and purified by the method described above. The binding affinity of each histidine-substituted variant at pH 7.4 and pH 5.8 was determined at 37 degrees C. using Biacore T200 instrument (GE Healthcare). Recombinant Protein A/G (Pierce) was immobilized onto all flow cells of a CM4 sensor chip using an amine coupling kit (GE Healthcare). Antibodies and analytes were prepared in 7(+) buffer (20 mM ACES, 150 mM NaCl, 1.2 mM CaCl2, 0.05% Tween 20, 0.005% NaN3, pH 7.4), 5(+) buffer (20 mM ACES, 150 mM NaCl, 1.2 mM CaCl2, 0.05% Tween 20, 0.005% NaN3, pH 5.8), or 5(−) buffer (20 mM ACES, 150 mM NaCl, 3 micro M CaCl2, 0.05% Tween 20, 0.005% NaN3, pH 5.8). Each antibody was captured onto the sensor surface by protein A/G. Antibody capture levels were aimed at 200 resonance unit (RU). Serum-derived human C1s (CompTech) or recombinant C1s prepared in EXAMPLE 1 was injected at 50 nM, followed by dissociation. The sensor surface was regenerated in each cycle with 10 mM Glycine-HCl, pH 1.5. […] The ratio of KD 5.8+ to KD 7.4+(“KD 5+/7+”) and that of KD 5.8− to KD 7.4+(“KD 5−/7+”) were calculated. When the KD 5+/7+ or KD 5−/7+ of a variant is larger than that of the parent antibody IPN009VH2-SG4GK/IPN009VK3-SK1, that variant is considered to be “pH”- or “pH and Ca”-dependent, respectively. When binding response in 5(+) buffer and/or in 5(−) buffer of a variant is much lower than that of IPN09VH2/IPN009VK3, that variant is also considered as “pH”- and/or “pH and Ca”-dependent. Therefore, such mutations are effective to generate “pH”- and/or “pH and Ca”-dependent antibody. To further enhance “pH” and/or “pH and Ca” dependency, a combination of histidine mutations was conducted. Antibodies with combinations of histidine mutations were evaluated using Biacore by the method described above.

[4] = biological target: T1, human C1s; assay: SPR; KD pH 5.8 3 uM Ca / KD pH 7.4 1.2 mM Ca
Procedure, shortened: as §1

[5] = biological target: T1, human C1s; assay: SPR, Ab captured; pH 7.4, 1.2 mM Ca
Procedure, shortened: as §1

[6] = biological target: T2, Serum-derived human C1s; assay: SPR Biacore T200, 37 C, antibody captured on protein A/G, pH 5.8, 1.2 mM CaCl2
Procedure: (§2) The binding affinity of all histidine-substituted variants at pH 7.4 and pH 5.8 were determined at 37 degrees C. using Biacore T200 instrument (GE Healthcare). Recombinant Protein A/G (Pierce) was immobilized onto all flow cells of a CM4 sensor chip using amine coupling kit (GE Healthcare). Antibodies and analytes were prepared in 7(+) buffer (20 mM ACES, 150 mM NaCl, 1.2 mM CaCl2, 0.05% Tween 20, 0.005% NaN3, pH 7.4) or 5(+) buffer (20 mM ACES, 150 mM NaCl, 1.2 mM CaCl2), 0.05% Tween 20, 0.005% NaN3, pH 5.8). Each antibody was captured onto the sensor surface by protein A/G. Antibody capture levels were aimed at 200 resonance unit (RU). […] Sensor surface was regenerated each cycle with 10 mM Glycine-HCl pH 1.5. […] An additional dissociation phase at pH 5.8 was integrated immediately after the dissociation phase at pH 7.4. This dissociation rate in 5(+) buffer was determined by processing and fitting data using Scrubber 2.0 (BioLogic Software) curve fitting software.

[7] = biological target: T2, Serum-derived human C1s; assay: SPR Biacore T200, 37 C, ratio of KD pH 5.8 / pH 7.4, 1.2 mM CaCl2
Procedure: as §2, with “software. […]” for “software.”

[8] = biological target: T2, Serum-derived human C1s; assay: SPR Biacore T200, 37 C, ratio of dissociation rates pH 5.8 / pH 7.4, 1.2 mM CaCl2
Procedure: as §2

[9] = biological target: T2, Serum-derived human C1s; assay: SPR Biacore T200, 37 C, antibody captured on protein A/G, pH 7.4, 1.2 mM CaCl2
Procedure: as §2

Binder | Kd [1] | koff [1] | kon [1] | KD 5(+)/7(+) [2] | Kd [3] | KD 5(-)/7(+) [4] | Kd [5] | koff [5] | kon [5] | koff [6] | kon [6] | KD (5.8+)/KD (7.4+) [7] | koff (5.8+ of 775+)/koff (7.4+) [8] | kon [9] | Kd [6] | Kd [9]
C1_IPN92H0048-SG4GK/IPN93L0024-SK1 (antibody, human IgG4 S228P, kappa, name in Kabat numbering, V domains shown, also called IPN92H0048/IPN93L0024) VH: EVMLVESGGGLVKPGGSLRLSCAASGHTFSNYAMSWVRQAPGKGLEWVATISSGGSHTYYLDSVKGRFTISRDNSKDTLYLQMNSLRAEDTALYYCARLFTGHAMDYWGQGTLVTVSS VL: QIVLTQSPATLSLSPGERATLSCTASSSVSSSYLHWYQQKPGKAPKLWIYSTSNLASGVPSRFSGSGSGTDYTLTISSLQPEDFATYYCHQYYRLHPITFGQGTKLEIKR | 12.1 nM | 0.00637 s⁻¹ | 528000 M⁻¹ s⁻¹ | 3.9 | 3.36 nM | 1.1 | 3.14 nM | 0.00082 s⁻¹ | 261000 M⁻¹ s⁻¹ | – | – | – | – | – | – | –
IPN009VH2/IPN009VK3-SG136 (antibody, human IgG1, kappa, also called parent antibody) heavy: EVMLVESGGGLVKPGGSLRLSCAASGFTFSNYAMSWVRQAPGKGLEWVATISSGGSHTYYLDSVKGRFTISRDNSKDTLYLQMNSLRAEDTALYYCARLFTGYAMDYWGQGTLVTVSSASTKGPSVFPLAPSSKSTSGGTAALGCLVKDYFPEPVTVSWNSGALTSGVHTFPAVLQSSGLYSLSSVVTVPSSSLGTQTYICNVNHKPSNTKVDKKVEPKSCDKTHTCPPCPAPELRRGPSVFLFPPKPKDTLMISRTPEVTCVVVDVSHEDPEVKFNWYVDGVEVHNAKTKPREEQYNSTYRVVSVLTVLHQDWLNGKEYKCKVSNKGLPSSIEKTISKAKGQPREPQVYTLPPSREEMTKNQVSLTCLVKGFYPSDIAVEWESNGQPENNYKTTPPVLDSDGSFFLYSKLTVDKSRWQQGNVFSCSVMHEALHNHYTQKSLSLSP light: QIVLTQSPATLSLSPGERATLSCTASSSVSSSYLHWYQQKPGKAPKLWIYSTSNLASGVPSRFSGSGSGTDYTLTISSLQPEDFATYYCHQYYRLPPITFGQGTKLEIKRTVAAPSVFIFPPSDEQLKSGTASVVCLLNNFYPREAKVQWKVDNALQSGNSQESVTEQDSKDCTYSLSSTLTLSKADYEKHKVYACEVTHQGLSSPVTKSFNRGEC | – | – | – | – | – | – | – | – | – | 0.000162 s⁻¹ | 360000 M⁻¹ s⁻¹ | 0.4 | 0.2 | 344000 M⁻¹ s⁻¹ | – | –
IPN009VH2/IPN93L0021-SG136 (antibody, human IgG1, kappa, name in Kabat numbering, The substitution is numbered by Kabat) heavy: EVMLVESGGGLVKPGGSLRLSCAASGFTFSNYAMSWVRQAPGKGLEWVATISSGGSHTYYLDSVKGRFTISRDNSKDTLYLQMNSLRAEDTALYYCARLFTGYAMDYWGQGTLVTVSSASTKGPSVFPLAPSSKSTSGGTAALGCLVKDYFPEPVTVSWNSGALTSGVHTFPAVLQSSGLYSLSSVVTVPSSSLGTQTYICNVNHKPSNTKVDKKVEPKSCDKTHTCPPCPAPELRRGPSVFLFPPKPKDTLMISRTPEVTCVVVDVSHEDPEVKFNWYVDGVEVHNAKTKPREEQYNSTYRVVSVLTVLHQDWLNGKEYKCKVSNKGLPSSIEKTISKAKGQPREPQVYTLPPSREEMTKNQVSLTCLVKGFYPSDIAVEWESNGQPENNYKTTPPVLDSDGSFFLYSKLTVDKSRWQQGNVFSCSVMHEALHNHYTQKSLSLSP light: QIVLTQSPATLSLSPGERATLSCTASSSVSSSYLHWYQQKPGKAPKLWIYSTSNLASGVPSRFSGSGSGTDYTLTISSLQPEDFATYYCHQYHRLPPITFGQGTKLEIKRTVAAPSVFIFPPSDEQLKSGTASVVCLLNNFYPREAKVQWKVDNALQSGNSQESVTEQDSKDCTYSLSSTLTLSKADYEKHKVYACEVTHQGLSSPVTKSFNRGEC | – | – | – | – | – | – | – | – | – | 0.00126 s⁻¹ | 290000 M⁻¹ s⁻¹ | 1.5 | 1.9 | 199000 M⁻¹ s⁻¹ | – | –
IPN009VH2/IPN93L0023-SG136 (antibody, human IgG1, kappa, name in Kabat numbering, also called IPN00VH2/IPN93L0023-SG136) heavy: EVMLVESGGGLVKPGGSLRLSCAASGFTFSNYAMSWVRQAPGKGLEWVATISSGGSHTYYLDSVKGRFTISRDNSKDTLYLQMNSLRAEDTALYYCARLFTGYAMDYWGQGTLVTVSSASTKGPSVFPLAPSSKSTSGGTAALGCLVKDYFPEPVTVSWNSGALTSGVHTFPAVLQSSGLYSLSSVVTVPSSSLGTQTYICNVNHKPSNTKVDKKVEPKSCDKTHTCPPCPAPELRRGPSVFLFPPKPKDTLMISRTPEVTCVVVDVSHEDPEVKFNWYVDGVEVHNAKTKPREEQYNSTYRVVSVLTVLHQDWLNGKEYKCKVSNKGLPSSIEKTISKAKGQPREPQVYTLPPSREEMTKNQVSLTCLVKGFYPSDIAVEWESNGQPENNYKTTPPVLDSDGSFFLYSKLTVDKSRWQQGNVFSCSVMHEALHNHYTQKSLSLSP light: QIVLTQSPATLSLSPGERATLSCTASSSVSSSYLHWYQQKPGKAPKLWIYSTSNLASGVPSRFSGSGSGTDYTLTISSLQPEDFATYYCHQYYRHPPITFGQGTKLEIKRTVAAPSVFIFPPSDEQLKSGTASVVCLLNNFYPREAKVQWKVDNALQSGNSQESVTEQDSKDCTYSLSSTLTLSKADYEKHKVYACEVTHQGLSSPVTKSFNRGEC | – | – | – | – | – | – | – | – | – | 0.000818 s⁻¹ | 330000 M⁻¹ s⁻¹ | 0.9 | 1.1 | 227000 M⁻¹ s⁻¹ | 2.48 nM | 2.77 nM
